Columns and labels:
MEF2D binding to ND6 = experiment: ChIP assay of MEF2D binding to the ND6 MEF2 site in purified mitochondria; type: cell-based, mouse; conditions: construct over-expressed in SN4741 cells
Source text: (§1) (A) Mitochondria-targeting MEF2D (Mt2D) and mitochondria-targeting dominant-negative MEF2D (Mt2Ddn), which lacks the transactivation domain (TAD). […] Control indicates the control vector group. (C) Effects of Mt2D or Mt2Ddn on ND6 expression in SN4741 cells. Over-expression of Mt2Ddn in SN4741 cells reduced ND6 but not PPAR-γ coactivator 1 (PGC1) expression by western blotting (n=4, **p<0.01). Control indicates the control vector group. (D) Effects of over-expression of Mt2D or Mt2Ddn on mRNA levels of mitochondria encoded genes. […] Control indicates the control vector group. (E) Effects of Mt2D or Mt2Ddn on mtDNA L-strand transcription initiation in vitro (n=3; **P<0.01). A human mtDNA fragment containing mitochondrial L-strand promoter (LSP) and ND6 gene was used in the in vitro transcription assay. […] (F) Effects of Mt2D or Mt2Ddn on mtDNA de novo transcription in vivo (n=3; **P<0.01). Control (−) is without primers. Control (+) indicates the control vector group.
(A) Reduced binding of MEF2D to ND6 after neurotoxin treatment. SN4741 cells were treated with MPP+ (25 μM) or rotenone (Rot, 100 nM) for 12 hours. […] Control indicates untreated. […] Control indicates untreated. (C) Immunocytochemical analysis of mitochondrial MEF2D after MPP+ and rotenone treatment. SN4741 cells treated as described in (A) were stained (scale bar, 10 μm). […] Experiments were repeated four times. Control indicates untreated. […] SN4741 cells were treated with MPP+ after infection with the control, Mt2Ddn or Mt2DVP16 or MtND6 lentiviruses for 24 hours (upper graph: different doses of MPP+ for 24 hours; lower graph: 5 μM of MPP+ for different times). Cell viability was measured by WST-1 assay (n=4; *p<0.05; **P<0.01). Control indicates the control vector group.
Andres et al., J Biol Chem, 1995, 270:23246-23249. Moreover, this putative MEF2 binding site is conserved among several species. To test whether MEF2D binds to this putative MEF2 site, electronic mobility shift assay (EMSA) was performed. N-terminal MEF2D formed a complex with the labeled probe containing the ND6 MEF2 site. […] To corroborate this finding, a chromatin immunoprecipitation (ChIP) assay was carried out using highly purified mitochondria. […] ND6 but not ND2 based primers could amplify the bound sequence (FIG. 3C). Sequence analysis of the DNA bound by MEF2D after amplification confirmed the presence of the ND6 MEF2 site (FIG. 3D).

ND6 mRNA = experiment: Real-time PCR of mitochondria-encoded mRNA levels in SN4741 cells; type: cell-based, mouse; conditions: construct over-expressed in SN4741 cells
Source text: as §1

SN4741 cells = experiment: PI (propidium iodide) staining of cell death; type: cell-based, mouse; conditions: SN4741 cells infected with lentivirus 24 hours, then MPP+ 5 μM for 24 hours
Method: (A) SN4741 cells were infected with lentiviruses for 24 hours and followed by exposure to MPP+ (5 μM) for 24 hours. Cell death was analyzed by PI (propidium iodide) staining (n=4; scale bar, 30 μm). The control indicated the control vector. (B) Quantification of the number of PI positive cells in (A) (n=50 cells, **P<0.01). Experiments were repeated four times. Control indicates the group transfected with the control vector.

TH+ neurons in SNpc = experiment: MPTP mouse model of PD, TH immunohistochemistry in SNpc; conditions: lentivirus injected into SNpc of mouse brain, then MPTP
Method: (B) Role of mitochondrial MEF2D-ND6 pathway in maintaining TH+ neurons in SNpc in a MPTP mouse model of PD. For each group, three mice received stereotactical injection of control vector (GFP) or Mt2Ddn lentivirus in SN. Two weeks later, mice were exposed to MPTP. After treatment for seven days, the survival of lentivirus-transduced TH+ neurons in SN was determined by immunohistochemistry (left panel). Quantitative analysis of nine mice from three independent experiments was shown at the bottom panel (scale bar, 30 μm; **P<0.01).

binding of full length MEF2D to the ND6 MEF2 site (MEF2D binding to ND6): modulated
B1: Mt2Ddn: Mitochondria-targeting dominant-negative MEF2D: mouse MEF2D 1-131aa with mitochondria-targeting signal, lacks the transactivation domain (protein, UniProt Q63943 1-131, looked up, fragment)
chain: MGRKKIQIQRITDERNRQVTFTKRKFGLMKKAYELSVLCDCEIALIIFNHSNKLFQYASTDMDKVLLKYTEYNEPHESRTNADIIETLRKKGFNGCDSPEPDGEDSLEQSPLLEDKYRRASEELDGLFRRY
modifications: mitochondria-targeting signal added
ND6 mRNA level (ND6 mRNA): clearly reduced | mRNA levels of other mitochondria-encoded proteins (ND6 mRNA): little effect | number of propidium iodide (PI) positive cells (SN4741 cells): increases | loss of TH signal in DA neurons in vivo (TH+ neurons in SNpc): significantly accelerates
